Source: US20230242902A1, “A HIGHLY ERROR-PRONE […] R[…] FOR TARGETED CONTINUOUS EVOLUTION IN VIVO” (The Regents of the University of California, priority 2017, published 2023)
Residue numbers refer to the chain shown, from its start. Names and notes keep the numbering of the source.

How the values were obtained:
p1 = p1 copy number by p1-encoded mKate2 fluorescence; type: cell-based, S. cerevisiae
How it was run: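 Steps: transform TP-DNAP1 variant into OR-Y24; passage until w.t. p1 displaced; dilute 1:10,000 and grow to saturation in triplicate; measure p1-encoded mKate2 fluorescence; convert to copy number via linear qPCR-based calibration. Four high-copy variants were checked directly by qPCR.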

p2-encoded leu2* = assay: p2 leu2* fluctuation tests in GA-Y021 (p2 mutation rate reporter strain); type: cell-based, S. cerevisiae; conditions: for change in p2 mutation rate by TP-DNAP1: GA-Y021, noncognate polymerase in trans, mutual orthogonality experiment; for fold increase of p2 mutation rate: GA-Y021, mutual orthogonality experiment, 48 replicates; for Per-base substitution rate pf p2: TP-DNAP2 variant in trans, wt TP-DNAP2 in cis, (95% C.I.); for Per-base substitution rate pf p2 / fold increase of p2 substitution mutation rate: 36 replicates; for Fold increase: p2 substitution rate over no variant in trans; for fold increase of p2 substitution mutation rate: reconfirmation
Description: For fluctuation tests used to measure p2 mutation rates, leu2* served as a marker for detecting mutational events. leu2* is a disabled version of LEU2, where Q180 is replaced with a TAA stop codon. Q180 is a permissive site where mutation to any other codon other than TAG and TGA results in functional reversion to LEU2. These mutational events can be detected by plating scores of parallel cultures on medium lacking leucine and counting the number distribution of functional LEU2 mutants.
For TP-DNAP2 library screening, each library member was subjected to small-scale leu2* fluctuation tests with six replicates. 190 library members from each yeast library transformation were arrayed and inoculated into liquid SC medium lacking uracil and histidine, and passaged three times at 1:10,000 dilutions. mKate2 fluorescence was measured at every passage on a microplate reader (TECAN Infinite® 200 PRO, settings: λex=588, λem=633) to track p2 copy number stabilization. To perform fluctuation tests, each library member was diluted 1:10,000 into liquid SC medium buffered to pH 5.8 and lacking uracil, histidine, tryptophan, and dilutions were split into six 100 μL replicates. Cultures were grown for 48 hours at 30° C. to reach saturation. Saturated cultures were washed with 200 μL 0.9% NaCl to remove residual leucine and resuspended in 35 μL of 0.9% NaCl. 10 μL of this resuspension was spot plated onto solid SC medium buffered to pH 5.8 and lacking uracil, histidine, tryptophan and leucine. Spot plates were allowed to dry and incubated at 30° C. Colonies were counted after 5 days. Colony counts were used to calculate the expected number of LEU2 functional mutants (m), using the p0 method (Foster, 2006, Methods Enzymol, 409:195-213).
To precisely measure p1 and p2 per-base substitution mutation rates, several modifications were made to the small-scale protocol. First, 36 replicates were performed for reconfirmation of candidate TP-DNAP2 mutators, and 48 replicates for genomic and mutual orthogonality experiments. Titers were also determined for each strain after spot plating by pooling the residual volume from 4 replicates and plating dilutions on YPD. The expected number of LEU2 functional mutants (m) was determined by the Ma-Sandri-Sarkar maximum likelihood estimator (as calculated by the FALCOR tool and corrected for partial plating (Foster, 2006, Methods Enzymol, 409:195-213; Sarkar et al., 1992, Genetica, 85:173-179; Hall et al., 2009, Bioinformatics, 25:1564-1565). The mean mKate2 fluorescence was determined from 50,000 event counts on Attune™ NxT Flow Cytometer and converted to p2 copy number by using a calibration curve. To determine per-base substitution rates, the corrected m was normalized to the average cell titer, the p2 copy number, and the target size for functional leu2* reversion (2.33 bp). 95% confidence intervals were similarly scaled.
To identify error-prone TP-DNAP2s, a small library of TP-DNAP2s diversified at locations hypothesized to be responsible for DNAP fidelity was screened. […] Four distinct site-saturation mutagenesis libraries were generated, each diversifying S370, Y424, L474, or F882 in TP-DNAP2 encoded on pGA55-reTP-DNAP2. Due to unsuccessful attempts to generate a strain with a full deletion of p2-encoded TP-DNAP2 and simultaneous integration of mKate, URA3, and leu2*, each library was transformed into GA-Y021 for convenient screening. However, since GA-Y021 still encodes wt TP-DNAP2 on p2-delORF1-mUL*, p2 mutation rates measured in this format are the result of in tandem replication of p2 by wt TP-DNAP2 and each TP-DNAP2 variant encoded in trans. 6-fold coverage of each library was maintained by picking 190 yeast colonies and passaging under selection for URA3 to stabilize the copy number of p2-delORF1-mUL* in the presence of the newly introduced TP-DNAP2 variants. […]

B1: TP-DNAP1-4-2: TP-DNAP1 variant (L477V, L640Y, I777K, W814N), encoded by SEQ ID NO:11 (protein, listed as Kluyveromyces lactis)
chain: MDYKDKALNDLRNVYADFDSLPLDFRQILIKDRATLLQKEDVEKKILERQEDAKKYAEYLKQSEIPERISLPNIKRHKGVSISFEETSEDMVLEPRPFIFDGLNIRCFRRETIFSLKNKILNMVKESSSFKNVSRQSVSFMYFKIFNKGKVIASTKSVNIYEDKIDERLEDLCNNFDDVLKKIIDVTYGYESLFVSETYSYVIFYAKSIYFPQPRCVNNWGNNIPNILTFDSFKLFTANKNNVSCIKQCSRFLWQKDFNTLEEMIEYKNGNICIVTPQLHINDVRDIKSFNDIRLYSESPIKTFSVIDNTITYLFYFKEHLGVIFNITKSRHDRRVTKFSPLSKFSDVKNITVCFDIESYFDPEKESNQVNIPFICCASIIYNKVIGNIVDFEGRDCVAQMIEYVVDICGELNISSVELIAHNGGGYDFHYILSSMYNPAAIKNILIRNNSFISFNFAHDGVKFSVKDSYSFLLCSVANASKAFLNEETFKKTDFPHHDLKTADDLYKVYKEWSSVNTEINHVVEKEKLLITSEHIVNFTKNDKSKTLIEWSKDYCRNDVLVLSKVWLEFKNAVEDIFNCELVDQTMTLAGLSYKLFQANMPFDVELRHPNKEDYFNMREALIGGRCISVNGIYKDVLCYDVKSLYPASMAFYDQPYGSFKRVSSRPKDELGIYYVRVTPNRNNKSNFFPIRSHNKITYNNFEESTYIAWYTNVDIDIGLSEGHNIEYIPFDSYGNIGYSWSKKGKIFEKYIKDVLYKLKIKYEKQNNKVKRNVIKKIMNSLWGKFAQKWVNFEYFIKSEDDIDFESEEAYKINDTDFMLIKKIKESTYSSKPIQNGVFTLSWARYHMKSIWDAGAKEGAECIYSDTDSIFVHKEHFKKNAKFMLNGLKVPIIGSEVGQLELECEFDKLLCAGKKQYMGFYTYFQDGKPCIKEKKRFKGIPSNYIIPELYAHLLSGADKEAKIQFLKFRREWGSVKGYIENKTVKAT
p1; sustained by TP-DNAP1 variant
  p1 copy number: ~5
p2-encoded leu2*
  change in p2 mutation rate by TP-DNAP1: no statistically significant change

B2: WT: wild-type Kluyveromyces lactis DNA polymerase TP-DNAP2, SEQ ID NO:13 (protein, listed as Kluyveromyces lactis)
chain: MNDELAFLNSQIDDYSDDIEFLRTEVFRINRYSKSIYSLMKNSSKEAIKETIEFNKYGQEIHSKIKEKEISLIEAIKLMEKKYKYLRSLNKTKDKSKKKKIHTKDIETLKTIYKTKADFDIRNFKNAETFTYENYSLLIPSEKELIDLIPEIEEDYSYYFYVSLTITGPTIFGGVTRKVPIIDTYGDINKDFYNKIKENITKVLDRVPFYEEKESEIICKKVLITLTVNKWESIDKWYKNVKSKSKKFKDFTLFLASDTSKNCVQQCVEYLGGKWNTNYSLEKMIPQQKIVTYIPLLMDIQYVQSMEDLISDFDEPNTDCKNIARLLKWNGHMGVITKIDKDVKINRIQRKRIIDVENKEVKEVFFDIESFSDETKHQIPYLICWSYLGELYYRTGKNCIKEFVEEILSYNVDIILYAWYGSGYDYQHVLPYMKSKCIKDKYIIKNNMITYGELYYENAIIYLKDPYLFILTSLDKASKAFNVINKGEFPHSIIHSWEDLNKILPNWVKIQKRMIEYKDDNKLNIYYKNIEIFENDRNYNTILENAIEYCKVDVLAMEKVWIKFKKLLEKNLNITVSVKTFTLSQLSMKIMESKLPKYVKLYVPTLEEYSKIRNAIYGGRVISKNGIYEENIVYADVVSLYPSAMKLLKHSYGKPKLVDYIDFEKHGIYRVTLLNKHDQEPKNYLNFVPRRINRKLTWEWFKIHEGWYHTYDLIIAKSEGFDIYCHEGFEYPEKDYIFNDFIDTLYSMKETHTACSCEEQPCPIRMVAKIALNGGGYGKFVQKPIDKEIYIVKRDVVAGECDKLQENENGEICIGKRLVKRPLFYNLDSENYDKMIIEKEDEPIYSTQCGISILSASRYRLYKLCKQFENIDIIYSDTDSIFVKQKSVDWELFKSKCGSELGQLDSTIDDTKNAIISKMYIGGAKMYAFEYLNNKNKLITKLHCKGVPNYMLSLNQFKYLMESPDNTIAYKFEIIRRKLVNVITKDLIKDIKQT
p2-encoded leu2*
  specificity for p2 over p1: at least 29 fold
p2-encoded leu2*; GA-Y021, wt TP-DNAP2 encoded on p2
  mutation rate of p2-delORF1-mUL* replication: 5.96×10^−10 s.p.b.

B3: S370Q: TP-DNAP2 variant (protein, listed as Kluyveromyces lactis)
chain: B2 chain with S370Q
p2-encoded leu2*
  fold increase of p2 mutation rate: 29 fold
  Per-base substitution rate pf p2: 83.0 (62.8-105) ×10^−10
  Fold increase: 13.9
  fold increase of p2 substitution mutation rate: ~14 fold

B4: Y424Q: TP-DNAP2 variant (protein, listed as Kluyveromyces lactis)
chain: B2 chain with Y424Q
p2-encoded leu2*
  fold increase of p2 mutation rate: 16 fold
  Per-base substitution rate pf p2: 77.5 (56.9-100) ×10^−10
  Fold increase: 13.0
  fold increase of p2 substitution mutation rate: ~13 fold

B5: w.t.: wild-type Kluyveromyces lactis DNA polymerase TP-DNAP1, SEQ ID NO:1 (protein, listed as Kluyveromyces lactis)
chain: B1 chain with V477L, Y640L, K777I, N814W
p1; G410 (w.t.) background
  Fold-change of p1 copy number over w.t.: 1.0 ± 0.27 fold
p1; variant additionally carrying G410H
  Fold-change of p1 copy number over w.t.: 1.53 ± 0.33 fold
p2-encoded leu2*
  change in p2 mutation rate by TP-DNAP1: no effect
